In patent publication US20190023793A1 one finds MOA NFAT reporter signal (Bio-Glo) data, which are given here for three substances.

The experiment concerns the target human PD-L1 full-length protein on cells (human) (UniProt Q9NZQ7). The experiment can be described thus: cell-based or functional assay.

human PD-L1 full-length protein on cells (human), sequence (Q9NZQ7 19-290): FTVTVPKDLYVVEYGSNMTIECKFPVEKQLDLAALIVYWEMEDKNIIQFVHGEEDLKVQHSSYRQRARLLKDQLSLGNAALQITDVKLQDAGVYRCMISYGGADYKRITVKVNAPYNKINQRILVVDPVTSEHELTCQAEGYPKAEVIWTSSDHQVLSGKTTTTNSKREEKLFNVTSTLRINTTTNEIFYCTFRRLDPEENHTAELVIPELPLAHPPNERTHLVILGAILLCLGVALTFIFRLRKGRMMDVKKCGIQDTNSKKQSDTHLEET

Turning to Atezolizumab (antibody), the MOA NFAT reporter signal (Bio-Glo) at 0.005 nm was 16900, the MOA NFAT reporter signal (Bio-Glo) at 0.015 nm worked out at 18400, the MOA NFAT reporter signal (Bio-Glo) at 0.046 nm is 17200 and the MOA NFAT reporter signal (Bio-Glo) at 0.137 nm worked out at 19200. The MOA NFAT reporter signal (Bio-Glo) at 0.412 nm was determined as 29300, the MOA NFAT reporter signal (Bio-Glo) at 1.235 nm was found to be 70800, the MOA NFAT reporter signal (Bio-Glo) at 3.704 nm was found to be 96900 and the MOA NFAT reporter signal (Bio-Glo) at 11.111 nm was 96500. For the same substance, the MOA NFAT reporter signal (Bio-Glo) at 33.333 nm was found to be 98000 and the MOA NFAT reporter signal (Bio-Glo) at 100.000 nm came out at 94000.

Substance Durvalumab (antibody) yielded an MOA NFAT reporter signal (Bio-Glo) at 0.005 nm of 18200, an MOA NFAT reporter signal (Bio-Glo) at 0.046 nm of 20300, an MOA NFAT reporter signal (Bio-Glo) at 0.137 nm of 23200 and an MOA NFAT reporter signal (Bio-Glo) at 0.412 nm of 53100. The MOA NFAT reporter signal (Bio-Glo) at 1.235 nm amounted to 89700, the MOA NFAT reporter signal (Bio-Glo) at 3.704 nm was determined as 103000, the MOA NFAT reporter signal (Bio-Glo) at 11.111 nm is 97900 and the MOA NFAT reporter signal (Bio-Glo) at 33.333 nm came out at 102000. This substance registered an MOA NFAT reporter signal (Bio-Glo) at 100.000 nm of 94100.

Turning to IgG1 negative control (antibody), the MOA NFAT reporter signal (Bio-Glo) at 100.000 nm, negative control was found to be 15700.
